In patent US20100316644A1 (ACCELERON PHARMA, published 2010):

T1: Activin B (UniProt P09529 293-407)
T1 sequence (looked up): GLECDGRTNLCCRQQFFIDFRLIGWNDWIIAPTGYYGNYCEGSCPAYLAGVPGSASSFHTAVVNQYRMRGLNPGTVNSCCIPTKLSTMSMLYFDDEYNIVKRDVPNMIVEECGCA

T2: Activin A (UniProt P08476 311-426)
T2 sequence (looked up): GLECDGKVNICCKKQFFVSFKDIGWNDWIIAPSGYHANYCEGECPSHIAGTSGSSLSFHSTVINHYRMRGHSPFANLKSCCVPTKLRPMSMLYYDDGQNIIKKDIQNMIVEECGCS

B1: ActRIIB(20-134)-hFc (Fc fusion, not shown: a dimerising Fc or GST)
chain: GRGEAETRECIYYNANWELERTNQSGLERCEGEQDKRLHCYASWRNSSGTIELVKKGCWLDDFNCYDRQECVATEENPQVYFCCCEGNFCNERFTHLPEAGGPEVTYEPPPTAPT
notes: The residue range comes from the construct name; also called full-length counterpart ActRIIB(20-134)-hFc
B2: Growth and Differentiation Factor-11 (GDF11) (ligand, UniProt O95390 299-407, looked up)
chain: NLGLDCDEHSSESRCCRYPLTVDFEAFGWDWIIAPKRYKANYCSGQCEYMFMQKYPHTHLVQQANPRGSAGPCCTPTKMSPINMLYFNDKQQIIYGKIPGMVVDRCGCS
notes: also called BMP11

Key:
Test in all cases: Biacore, steady-state affinity fit
Activin B = biological target: T1, Activin B
Excerpt: (§1) Kd values were obtained by steady-state affinity fit due to very rapid association and dissociation of the complex, which prevented accurate determination of kₒₙ and koff.

Activin A = biological target: T2, Activin A
Excerpt: as §1

ActRIIB(20-134)-hFc = biological target: B1
Excerpt: as §1

Kd (Activin B)	Kd (Activin A)	Kd (ActRIIB(20-134)-hFc)	Binder
0.012 nM	0.016 nM	–	B1
–	–	0.036 nM	B2
